Experiments:
SyCS [1] = target: T1, SyCS (Synechocystis sp. PCC 6803, UniProt Q59977); experiment: DTNB assay at A412, residual activity; assay type: biochemical; settings: read-out: % activity at 5 mM
T1 construct: gene gltA; full-length gltA (synthesized) in pGEX5X-1, GST-tagged, tag not reported cut; expressed in E. coli DH5alpha, glutathione-Sepharose purified
T1 sequence (Q59977 1-397): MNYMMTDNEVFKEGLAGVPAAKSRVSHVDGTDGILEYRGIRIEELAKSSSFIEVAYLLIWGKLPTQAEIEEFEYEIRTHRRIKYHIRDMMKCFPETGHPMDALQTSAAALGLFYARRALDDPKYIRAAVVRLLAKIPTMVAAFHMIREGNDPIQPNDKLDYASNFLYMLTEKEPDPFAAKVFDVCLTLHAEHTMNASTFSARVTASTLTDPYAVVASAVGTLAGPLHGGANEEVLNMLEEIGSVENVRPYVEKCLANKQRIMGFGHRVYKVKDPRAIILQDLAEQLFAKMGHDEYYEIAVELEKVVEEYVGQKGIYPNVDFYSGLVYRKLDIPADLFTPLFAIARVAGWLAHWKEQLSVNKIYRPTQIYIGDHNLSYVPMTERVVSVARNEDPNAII

SyCS [2] = target: T1, SyCS; experiment: DTNB assay at A412, relative activity; assay type: biochemical; settings: read-out: % activity at 5 mM
[3] = substrate: CC(=O)SCCNC(=O)CCNC(=O)[C@H](O)C(C)(C)COP(=O)(O)OP(=O)(O)OC[C@H]1O[C@@H](n2cnc3c(N)ncnc32)[C@H](O)[C@@H]1OP(=O)(O)O; experiment: DTNB assay at A412, Lineweaver-Burk; assay type: biochemical, Synechocystis sp. PCC 6803; settings: oxaloacetate 1 mM, no effector, 50 mM Tris-HCl pH 7.5, 37 °C, GST-tagged enzyme
Source text: (§1) DTNB assay at […], Lineweaver-Burk on SyCS

[4] = substrate: O=C(O)CC(=O)C(=O)O; experiment: DTNB assay at A412, Lineweaver-Burk; assay type: biochemical, Synechocystis sp. PCC 6803; settings: acetyl-CoA 0.5 mM, no effector, 50 mM Tris-HCl pH 7.5, 37 °C, GST-tagged enzyme
Source text: as §1

## C=C(OP(=O)(O)O)C(=O)O [phosphoenolpyruvate]
SyCS [1]
  activity at 5000 µM: 14%

## O=C(O)CCC(=O)C(=O)O [2-oxoglutarate]
SyCS [1]
  activity at 5000 µM: 2%

## Nc1ncnc2c1ncn2[C@@H]1O[C@H](COP(=O)(O)OP(=O)(O)O)[C@@H](O)[C@H]1O [ADP]
SyCS [2]
  activity at 5000 µM: 369%

B1: SyCS (Synechocystis sp. PCC 6803 substr. Kazusa) (protein)
chain: MNYMMTDNEVFKEGLAGVPAAKSRVSHVDGTDGILEYRGIRIEELAKSSSFIEVAYLLIWGKLPTQAEIEEFEYEIRTHRRIKYHIRDMMKCFPETGHPMDALQTSAAALGLFYARRALDDPKYIRAAVVRLLAKIPTMVAAFHMIREGNDPIQPNDKLDYASNFLYMLTEKEPDPFAAKVFDVCLTLHAEHTMNASTFSARVTASTLTDPYAVVASAVGTLAGPLHGGANEEVLNMLEEIGSVENVRPYVEKCLANKQRIMGFGHRVYKVKDPRAIILQDLAEQLFAKMGHDEYYEIAVELEKVVEEYVGQKGIYPNVDFYSGLVYRKLDIPADLFTPLFAIARVAGWLAHWKEQLSVNKIYRPTQIYIGDHNLSYVPMTERVVSVARNEDPNAII
notes: full-length gltA (synthesized) in pGEX5X-1, GST-tagged, tag not reported cut; expressed in E. coli DH5alpha, glutathione-Sepharose purified
[3]
  Km: 220 ± 77 µM
  kcat: 2.51 ± 0.24 s⁻¹
  kcat/Km: 12100 ± 2950 M⁻¹ s⁻¹
[4]
  Km: 91 ± 11 µM
  kcat: 2.76 ± 0.26 s⁻¹
  kcat/Km: 30500 ± 3170 M⁻¹ s⁻¹
